Data: US20240109945A1 (published 2024)
Substitutions are numbered along the chain they refer to. Names may count otherwise. Each block holds one binder with its values, some of them ahead of it. No end group written: not given here. M3N2 = N-glycan

Key:
[1] = molecular target: T1, biotinylated N-glycopeptide A3Man (AVSHN(M3N2)ASLE) (also: biotinylated, position not given here); assay: BLI
T1 peptide: AVSHN(M3N2)ASLE

G2PB = assay: BLI

B2: Fbs1-2 (F177Y.E178R) (designed binder)
chain: MGSSHHHHHHHHSSGENLYFQSHMASQQEGLVPEGSADEERDHWQQFYFLSKRRRNLLRNPCGEEDLEGWSDVEHGGDGWRVEELPGDNGVEFTQDDSVKKYFASSYRWCRKAQVIDLQAEGYWEELLDTTQPAIVVKDWYSGRTDAGSLYELTVRLLSENEDVLAEFATGQVAVPEDGSWMEISHTFIDYGPGVRFVRFEHGGQDSVYWKGWFGARVTNSSVWVEP
Kd (G2PB): 26800 nM

B3: Fbs1-3 (N159G.F177Y.E178R) (designed binder)
chain: B2 chain with N89G
Kd (G2PB): 540 nM

B4: Fbs1-7 (E154R.N159G.F177Y.E178R) (designed binder)
chain: B2 chain with E84R, N89G
Kd (G2PB): 1450 nM

B9: Fbs1-6 (E153R.N159G.F177Y.E178R) (designed binder)
chain: B2 chain with E83R, N89G
Kd (G2PB): 790 nM

B11: Fbs1-1 (WT) (designed binder)
chain: B2 chain with Y107F, R108E
Kd (G2PB): 27500 nM

Second part, the binder after the results:

Kd [1]: 860 nM
B1: Variant Fbs1-7 (designed binder)
chain: B2 chain with E84R, N89G

Kd [1]: 200 nM
B5: Variant Fbs1-6 (designed binder)
chain: B2 chain with E83R, N89G

Kd [1]: 610 nM
B6: Variant Fbs1-2 (designed binder)
chain: B2 chain

Kd [1]: 880 nM
B7: Variant Fbs1-3 (designed binder)
chain: B2 chain with N89G

Kd [1]: 4300 nM
B8: Variant Fbs1-1 (designed binder)
chain: B2 chain with Y107F, R108E

Kd [1]: 1140 nM
B10: Variant Fbs1-8 (designed binder)
chain: B2 chain with E83R, E84R, N89G

Kd (G2PB): 1190 nM
B12: Fbs1-8 (E153R.E154R.N159G.F177Y.E178R) (designed binder)
chain: B2 chain with E83R, E84R, N89G
